Consider two molecules from patent US20100062978A1 (UNIVERSITY OF TOKYO, published 2010).

In assay [1] the target is T1, wild-type human EGFR (erbB1) (human, UniProt P00533 25-1210).
T1 construct: whole, on cells; precipitated from cell lysates with anti-EGFR antibody; also called HER1; wild-type EGFR
Kind of assay: co-immunoprecipitation with anti-EGFR antibody from HEK293 lysate, immunoblot. On the procedure: Before EGF treatment, Saos-2 cell or HEK293 cell was kept serum deficiency state for 24 hours.

The target of assay [2] is T2, GST-ERK2 fusion protein (glutathione S-transferase fused with human ERK2, from pGEX-4T-1) (human, UniProt P28482 1-360).
T2 construct: Expressed in E. coli BL21 and immobilised on Glutathione Sepharose beads for the pull-down; not shown: glutathione S-transferase (GST) encoded by the vector pGEX-4T-1
T2 sequence (P28482 whole entry, the tested form may be a part): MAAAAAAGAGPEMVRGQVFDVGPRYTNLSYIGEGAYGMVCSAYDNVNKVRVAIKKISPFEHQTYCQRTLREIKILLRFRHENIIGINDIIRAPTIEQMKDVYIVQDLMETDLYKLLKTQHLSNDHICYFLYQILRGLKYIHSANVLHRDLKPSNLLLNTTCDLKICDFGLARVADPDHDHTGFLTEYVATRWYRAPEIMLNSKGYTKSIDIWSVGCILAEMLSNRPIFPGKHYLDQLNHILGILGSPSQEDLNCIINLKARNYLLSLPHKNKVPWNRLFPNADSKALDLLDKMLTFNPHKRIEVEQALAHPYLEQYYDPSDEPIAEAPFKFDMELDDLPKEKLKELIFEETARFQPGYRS
Briefly: GST-ERK2 pull-down from HEK293 lysate, immunoblot.

B1: 186-328 variant of human SNT-2 (PTB-domain-deleted), C-terminal FLAG-tag (other)
chain: DEQSHTYVNTPASEDDHRRGRHCLQPLPEGQAPFLPQARGPDQRDPQVFLQPGQVKFVLGPTPARRHMVKCQGLCPSLHDPPHHNNNNEAPSECPAQPKCTYENVTGGLWRGAGWRLSPEEPGWNGLAHRRAALLHYENLPPL
notes: not shown: C-terminal FLAG-tag
As for B1, the binding result in assay [1] was “no binding”.

B2: 1-236 variant of human SNT-2, C-terminal FLAG-tag (other)
chain: MGSCCSCLNRDSVPDNHPTKFKVTNVDDEGVELGSGVMELTQSELVLHLHRREAVRWPYLCLRRYGYDSNLFSFESGRRCQTGQGIFAFKCSRAEEIFNLLQDLMQCNSINVMEEPVIITRNSHPAELDLPRAPQPPNALGYTVSSFSNGCPGEGPRFSAPRRLSTSSLRHPSLGEESTHALIAPDEQSHTYVNTPASEDDHRRGRHCLQPLPEGQAPFLPQARGPDQRDPQVFLQ
notes: C-terminal-cut-off variant expressed in HEK293 cells; not shown: C-terminal FLAG-tag
Take B2: the binding result in assay [2] is on record as “no binding”.
